{"source": "paper PMC12449476", "about": "“Transient ligand contacts of the intrinsically disordered N-terminus of neuropeptide Y2 receptor regulate arrestin-3 recruitment” (Nature Communications, 2025)", "key": {"Nluc-Y2R-eYFP E15-20K": {"target": "T1, Nluc-Y2R-eYFP E15-20K (Homo sapiens, UniProt P49146, E15K/E16K/E20K)", "T1 construct": "expressed in transfected cells; host or cells: membrane preparations of transiently transfected HEK293", "T1 sequence (P49146 1-381 E15K/E16K/E20K)": "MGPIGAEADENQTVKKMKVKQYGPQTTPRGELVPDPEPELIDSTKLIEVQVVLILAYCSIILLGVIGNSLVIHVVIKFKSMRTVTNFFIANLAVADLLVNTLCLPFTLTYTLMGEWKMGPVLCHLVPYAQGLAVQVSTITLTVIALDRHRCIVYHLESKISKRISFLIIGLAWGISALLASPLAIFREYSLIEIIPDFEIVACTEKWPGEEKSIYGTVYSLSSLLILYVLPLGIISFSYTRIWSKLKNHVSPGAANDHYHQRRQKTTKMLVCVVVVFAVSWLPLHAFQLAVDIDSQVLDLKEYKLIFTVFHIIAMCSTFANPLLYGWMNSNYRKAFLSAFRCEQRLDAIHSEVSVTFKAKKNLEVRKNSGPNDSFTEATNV", "assay": "NanoBRET equilibrium ligand binding", "protocol": "(§1) Briefly, for each data point, membranes containing 0.03 μg total protein were suspended in ice-cold BRET binding buffer (Hank’s balanced salt solution (HBSS) containing 20 mM HEPES (pH 7.4), 0.1% bovine serum albumin (BSA)). The assay was performed in solid black 96-WP with a total assay volume of 100 μL in technical duplicate or triplicate. […] To determine unspecific binding, 100 µM of the Y2R antagonist JNJ-31020028 (Selleck Europe) were added to each well. […] To start the dissociation measurement, the antagonist JNJ-31020028 was added to a final concentration of 50 µM (20 µL) using the built-in injector system of the plate reader and the BRET decay was measured for 20 min. Raw BRET was calculated as the ratio of fluorescence to luminescence, and the background value of the unspecific binding controls was subtracted to obtain the netBRET signal."}, "Nluc-Y2R-eYFP D/E35-39K": {"target": "T2, Nluc-Y2R-eYFP D/E35-39K (Homo sapiens, UniProt P49146, D35K/E37K/E39K)", "T2 construct": "expressed in transfected cells; host or cells: HEK293, transiently transfected, membrane preparations", "T2 sequence (P49146 1-381 D35K/E37K/E39K)": "T1 sequence (P49146 1-381 E15K/E16K/E20K) with K15E, K16E, K20E, D35K, E37K, E39K", "assay": "NanoBRET equilibrium ligand binding", "protocol": "as §1"}, "WT Nluc-Y2R-eYFP [1]": {"target": "T3, WT Nluc-Y2R-eYFP (Homo sapiens, UniProt P49146)", "T3 construct": "expressed in transfected cells; host or cells: membrane preparations of transiently transfected HEK293", "T3 sequence (P49146 1-381)": "T1 sequence (P49146 1-381 E15K/E16K/E20K) with K15E, K16E, K20E", "assay": "NanoBRET equilibrium ligand binding", "protocol": "Briefly, for each data point, membranes containing 0.03 μg total protein were suspended in ice-cold BRET binding buffer (Hank’s balanced salt solution (HBSS) containing 20 mM HEPES (pH 7.4), 0.1% bovine serum albumin (BSA)). The assay was performed in solid black 96-WP with a total assay volume of 100 μL in technical duplicate or triplicate. […] Raw BRET was calculated as the ratio of fluorescence to luminescence, and the background value of the unspecific binding controls was subtracted to obtain the netBRET signal."}, "WT Nluc-Y2R-eYFP [2]": {"target": "T3, WT Nluc-Y2R-eYFP", "settings": "cited from earlier work", "text": "In the following, we are addressing the Reviewer’s comments point‐by‐point. We quote statements from the Reviewer in bold face. We refer to changes made in the manuscript in yellow italics. Reviewer #1 (Remarks to the Author): In this work ..."}}, "note": "Residue numbers refer to the chain shown, from its start.", "data": [{"substance": "K18-Tamra-NPY: tetramethylrhodamine(Tamra)-labeled peptide (K^18-Tamra-NPY)", "values": [{"measurement": "BRETmax", "setting": "Nluc-Y2R-eYFP E15-20K; HEK293 membranes, 10 min RT, mean, 95% CI 0.0243 to 0.0371", "result": 0.0307}, {"measurement": "Fraction high affinity", "setting": "Nluc-Y2R-eYFP E15-20K; mean, 95% CI 0.0705 to 0.0862", "result": 0.0783}, {"measurement": "KD, high replicates (log)", "setting": "Nluc-Y2R-eYFP E15-20K; replicate 1", "result": -9.24}, {"measurement": "KD, low replicates (log)", "setting": "Nluc-Y2R-eYFP E15-20K; replicate 1", "result": -6.58}, {"measurement": "KD, high replicates (log)", "setting": "Nluc-Y2R-eYFP E15-20K; replicate 2", "result": -9.21}, {"measurement": "KD, low replicates (log)", "setting": "Nluc-Y2R-eYFP E15-20K; replicate 2", "result": -6.52}, {"measurement": "KD, high replicates (log)", "setting": "Nluc-Y2R-eYFP E15-20K; replicate 3", "result": -9.93}, {"measurement": "KD, low replicates (log)", "setting": "Nluc-Y2R-eYFP E15-20K; replicate 3", "result": -6.58}, {"measurement": "BRETmax", "setting": "Nluc-Y2R-eYFP D/E35-39K; HEK293 membranes, 10 min RT, mean, 95% CI 0.025 to 0.0287", "result": 0.0270}, {"measurement": "Fraction high affinity", "setting": "Nluc-Y2R-eYFP D/E35-39K; mean, 95% CI 0 to 0.1938", "result": 0.0957}, {"measurement": "KD, high replicates (log)", "setting": "Nluc-Y2R-eYFP D/E35-39K; replicate 1", "result": -9.38}, {"measurement": "KD, low replicates (log)", "setting": "Nluc-Y2R-eYFP D/E35-39K; replicate 1", "result": -6.53}, {"measurement": "KD, high replicates (log)", "setting": "Nluc-Y2R-eYFP D/E35-39K; replicate 2", "result": -9.46}, {"measurement": "KD, low replicates (log)", "setting": "Nluc-Y2R-eYFP D/E35-39K; replicate 2", "result": -6.67}, {"measurement": "KD, high replicates (log)", "setting": "Nluc-Y2R-eYFP D/E35-39K; replicate 3", "result": -10.11}, {"measurement": "KD, low replicates (log)", "setting": "Nluc-Y2R-eYFP D/E35-39K; replicate 3", "result": -6.65}, {"measurement": "BRETmax", "setting": "WT Nluc-Y2R-eYFP [1]; HEK293 membranes, 10 min RT, mean, 95% CI 0.0273 to 0.0311", "result": 0.0292}, {"measurement": "Fraction high affinity", "setting": "WT Nluc-Y2R-eYFP [1]; mean, 95% CI 0.0352 to 0.0881", "result": 0.0617}, {"measurement": "KD, high replicates (log)", "setting": "WT Nluc-Y2R-eYFP [1]; replicate 1", "result": -9.88}, {"measurement": "KD, low replicates (log)", "setting": "WT Nluc-Y2R-eYFP [1]; replicate 1", "result": -6.52}, {"measurement": "KD, high replicates (log)", "setting": "WT Nluc-Y2R-eYFP [1]; replicate 2", "result": -9.40}, {"measurement": "KD, low replicates (log)", "setting": "WT Nluc-Y2R-eYFP [1]; replicate 2", "result": -6.56}, {"measurement": "KD, high replicates (log)", "setting": "WT Nluc-Y2R-eYFP [1]; replicate 3", "result": -9.43}, {"measurement": "KD, low replicates (log)", "setting": "WT Nluc-Y2R-eYFP [1]; replicate 3", "result": -6.54}, {"measurement": "KD,high", "setting": "WT Nluc-Y2R-eYFP [2]; G-protein-dependent high-affinity state", "result": "subnanomolar"}, {"measurement": "Kd", "setting": "WT Nluc-Y2R-eYFP [2]; G-protein-independent low-affinity state", "result": "~300", "unit": "nM"}]}]}
